From the Human Domainome abundance scans (Beltran et al. 2025)
± gives the uncertainty stated by the source.

B1: Probable E3 ubiquitin-protein ligase MID2, residues 191 to 235; numbered along this chain, Q9UJV3 (parent)
chain: RGITCLDHENEKVNMYCVSDDQLICALCKLVGRHRDHQVASLNDR

Variants of: B1
Assay: abundance fitness (aPCA) (normalised: wild type 0, dead -1); higher = more abundant; growth selection in yeast, the domain comes from the species named
Settings: Homo sapiens

Row | Variant | abundance fitness
1 | RGITHLDHENEKVNMYCVSDDQLICALCKLVGRHRDHQVASLNDR [C5H] | -0.555 ± 0.1
2 | RGITPLDHENEKVNMYCVSDDQLICALCKLVGRHRDHQVASLNDR [C5P] | -0.717 ± 0.099
3 | RGITDLDHENEKVNMYCVSDDQLICALCKLVGRHRDHQVASLNDR [C5D] | -0.39 ± 0.076
4 | RGITQLDHENEKVNMYCVSDDQLICALCKLVGRHRDHQVASLNDR [C5Q] | -0.585 ± 0.11
5 | RGITVLDHENEKVNMYCVSDDQLICALCKLVGRHRDHQVASLNDR [C5V] | -0.589 ± 0.064
6 | RGITNLDHENEKVNMYCVSDDQLICALCKLVGRHRDHQVASLNDR [C5N] | -0.487 ± 0.082
7 | RGITSLDHENEKVNMYCVSDDQLICALCKLVGRHRDHQVASLNDR [C5S] | -0.448 ± 0.062
8 | RGITWLDHENEKVNMYCVSDDQLICALCKLVGRHRDHQVASLNDR [C5W] | -0.706 ± 0.066
9 | RGITKLDHENEKVNMYCVSDDQLICALCKLVGRHRDHQVASLNDR [C5K] | -0.379 ± 0.097
10 | RGITLLDHENEKVNMYCVSDDQLICALCKLVGRHRDHQVASLNDR [C5L] | -0.985 ± 0.097
11 | RGITFLDHENEKVNMYCVSDDQLICALCKLVGRHRDHQVASLNDR [C5F] | -0.951 ± 0.31
12 | RGITMLDHENEKVNMYCVSDDQLICALCKLVGRHRDHQVASLNDR [C5M] | -0.462 ± 0.081
13 | RGITELDHENEKVNMYCVSDDQLICALCKLVGRHRDHQVASLNDR [C5E] | -0.307 ± 0.06
14 | RGITGLDHENEKVNMYCVSDDQLICALCKLVGRHRDHQVASLNDR [C5G] | -0.461 ± 0.046
15 | IGITCLDHENEKVNMYCVSDDQLICALCKLVGRHRDHQVASLNDR [R1I] | -0.17 ± 0.095
16 | MGITCLDHENEKVNMYCVSDDQLICALCKLVGRHRDHQVASLNDR [R1M] | -0.044 ± 0.11
17 | DGITCLDHENEKVNMYCVSDDQLICALCKLVGRHRDHQVASLNDR [R1D] | -0.079 ± 0.072
18 | TGITCLDHENEKVNMYCVSDDQLICALCKLVGRHRDHQVASLNDR [R1T] | -0.118 ± 0.092
19 | VGITCLDHENEKVNMYCVSDDQLICALCKLVGRHRDHQVASLNDR [R1V] | -0.195 ± 0.066
20 | FGITCLDHENEKVNMYCVSDDQLICALCKLVGRHRDHQVASLNDR [R1F] | 0.127 ± 0.3
21 | YGITCLDHENEKVNMYCVSDDQLICALCKLVGRHRDHQVASLNDR [R1Y] | -0.807 ± 0.38
22 | LGITCLDHENEKVNMYCVSDDQLICALCKLVGRHRDHQVASLNDR [R1L] | -0.194 ± 0.081
23 | QGITCLDHENEKVNMYCVSDDQLICALCKLVGRHRDHQVASLNDR [R1Q] | 0.069 ± 0.11
24 | KGITCLDHENEKVNMYCVSDDQLICALCKLVGRHRDHQVASLNDR [R1K] | -0.211 ± 0.14
25 | AGITCLDHENEKVNMYCVSDDQLICALCKLVGRHRDHQVASLNDR [R1A] | -0.158 ± 0.069
26 | SGITCLDHENEKVNMYCVSDDQLICALCKLVGRHRDHQVASLNDR [R1S] | -0.187 ± 0.059
27 | NGITCLDHENEKVNMYCVSDDQLICALCKLVGRHRDHQVASLNDR [R1N] | -0.017 ± 0.15
28 | HGITCLDHENEKVNMYCVSDDQLICALCKLVGRHRDHQVASLNDR [R1H] | -0.081 ± 0.17

Row | Variant | abundance fitness
29 | EGITCLDHENEKVNMYCVSDDQLICALCKLVGRHRDHQVASLNDR [R1E] | 0.019 ± 0.097
30 | WGITCLDHENEKVNMYCVSDDQLICALCKLVGRHRDHQVASLNDR [R1W] | -0.502 ± 0.073
31 | GGITCLDHENEKVNMYCVSDDQLICALCKLVGRHRDHQVASLNDR [R1G] | -0.04 ± 0.049
32 | RGITCLAHENEKVNMYCVSDDQLICALCKLVGRHRDHQVASLNDR [D7A] | -0.128 ± 0.051
33 | RGITCLFHENEKVNMYCVSDDQLICALCKLVGRHRDHQVASLNDR [D7F] | -0.082 ± 0.27
34 | RGITCLCHENEKVNMYCVSDDQLICALCKLVGRHRDHQVASLNDR [D7C] | -0.192 ± 0.071
35 | RGITCDDHENEKVNMYCVSDDQLICALCKLVGRHRDHQVASLNDR [L6D] | 0.124 ± 0.099
36 | RGITCKDHENEKVNMYCVSDDQLICALCKLVGRHRDHQVASLNDR [L6K] | 0.213 ± 0.072
37 | RGITCGDHENEKVNMYCVSDDQLICALCKLVGRHRDHQVASLNDR [L6G] | 0.039 ± 0.042
38 | RGITCCDHENEKVNMYCVSDDQLICALCKLVGRHRDHQVASLNDR [L6C] | 0.069 ± 0.055
39 | RGITCEDHENEKVNMYCVSDDQLICALCKLVGRHRDHQVASLNDR [L6E] | 0.151 ± 0.049
40 | RGITCPDHENEKVNMYCVSDDQLICALCKLVGRHRDHQVASLNDR [L6P] | 0.156 ± 0.058
41 | RGITCVDHENEKVNMYCVSDDQLICALCKLVGRHRDHQVASLNDR [L6V] | 0.021 ± 0.045
42 | RGITCADHENEKVNMYCVSDDQLICALCKLVGRHRDHQVASLNDR [L6A] | 0.145 ± 0.046
43 | RGITCSDHENEKVNMYCVSDDQLICALCKLVGRHRDHQVASLNDR [L6S] | 0.118 ± 0.051
44 | RGITCIDHENEKVNMYCVSDDQLICALCKLVGRHRDHQVASLNDR [L6I] | 0.16 ± 0.13
45 | RGITCFDHENEKVNMYCVSDDQLICALCKLVGRHRDHQVASLNDR [L6F] | -0.028 ± 0.07
46 | RGITCMDHENEKVNMYCVSDDQLICALCKLVGRHRDHQVASLNDR [L6M] | 0.072 ± 0.071
47 | RGITCTDHENEKVNMYCVSDDQLICALCKLVGRHRDHQVASLNDR [L6T] | 0.14 ± 0.057
48 | RGITCRDHENEKVNMYCVSDDQLICALCKLVGRHRDHQVASLNDR [L6R] | 0.103 ± 0.042
49 | RGITCWDHENEKVNMYCVSDDQLICALCKLVGRHRDHQVASLNDR [L6W] | -0.253 ± 0.055
50 | RGITCYDHENEKVNMYCVSDDQLICALCKLVGRHRDHQVASLNDR [L6Y] | 0.064 ± 0.13
51 | RGITCQDHENEKVNMYCVSDDQLICALCKLVGRHRDHQVASLNDR [L6Q] | 0.176 ± 0.061
52 | RGITCNDHENEKVNMYCVSDDQLICALCKLVGRHRDHQVASLNDR [L6N] | -0.22 ± 0.26
53 | RGICCLDHENEKVNMYCVSDDQLICALCKLVGRHRDHQVASLNDR [T4C] | -0.18 ± 0.092
54 | RGINCLDHENEKVNMYCVSDDQLICALCKLVGRHRDHQVASLNDR [T4N] | -0.01 ± 0.11
55 | RGIRCLDHENEKVNMYCVSDDQLICALCKLVGRHRDHQVASLNDR [T4R] | -0.205 ± 0.048
